In publication PMC9224930, “VH3-53/66-Class RBD-Specific Human Monoclonal Antibody iB20 Displays Cross-Neutralizing Activity against Emerging SARS-CoV-2 Lineages” (Journal of Personalized Medicine, 2022):

Target: T1, SARS-CoV-2 Wuhan-1 receptor-binding domain (RBD) (SARS-CoV-2 (Wuhan-1), UniProt P0DTC2)
T1 construct: also called Wuhan RBD; w.t; RBD
Test: BLI; pairwise competition on NTA biosensors (Octet RED96): Wuhan RBD immobilised via its 6xHis tag (200 s), first antibody added (600 s), then the second (600 s)
Settings: both partners purified

B1: nAb CV30 (antibody, V domains shown)
VH: QVQLVESGGGLIQPGGSLRLSCAASGVIVSSNYMSWVRQAPGKGLEWVSVIYSGGSTYYADSVKGRFTISRDNSKNTLYLQMNSLRAEDTAVYYCARDLDVSGGMDVWGQGTTVTVSS
VL: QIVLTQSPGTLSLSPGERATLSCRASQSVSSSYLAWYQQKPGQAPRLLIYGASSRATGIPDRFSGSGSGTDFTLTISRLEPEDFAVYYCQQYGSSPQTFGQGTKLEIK
notes: also called recombinant CV30
binding result: binds
